Assay results published in patent US7083511.

Legend:
GST-SGK3 (wild type) = target: T1, GST-SGK3 (wild type)
T1 chain: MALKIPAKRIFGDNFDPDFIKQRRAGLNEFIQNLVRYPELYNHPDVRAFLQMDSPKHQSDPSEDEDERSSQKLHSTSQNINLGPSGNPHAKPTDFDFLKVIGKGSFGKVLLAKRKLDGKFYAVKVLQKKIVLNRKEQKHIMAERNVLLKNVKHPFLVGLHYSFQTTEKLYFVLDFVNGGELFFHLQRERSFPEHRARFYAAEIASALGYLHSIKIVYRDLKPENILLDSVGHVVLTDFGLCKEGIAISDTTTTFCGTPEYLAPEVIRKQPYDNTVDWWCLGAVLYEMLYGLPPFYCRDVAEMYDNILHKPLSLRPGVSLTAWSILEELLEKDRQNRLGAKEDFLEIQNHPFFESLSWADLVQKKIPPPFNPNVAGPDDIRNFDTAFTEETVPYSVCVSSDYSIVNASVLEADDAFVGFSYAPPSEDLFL

[1] = target: GST-SGK[T256A/S422D], O00141
[2] = target: GST-SGK with Lys127 mutated to Ala (kinase dead), O00141
[3] = target: GST-SGK with both Thr256 and Ser422 mutated to Ala, O00141
[4] = target: GST-ΔN-SGK(61-431)[S422D], O00141
[5] = target: T2, GST-SGK (full length, wild type), O00141
T2 chain: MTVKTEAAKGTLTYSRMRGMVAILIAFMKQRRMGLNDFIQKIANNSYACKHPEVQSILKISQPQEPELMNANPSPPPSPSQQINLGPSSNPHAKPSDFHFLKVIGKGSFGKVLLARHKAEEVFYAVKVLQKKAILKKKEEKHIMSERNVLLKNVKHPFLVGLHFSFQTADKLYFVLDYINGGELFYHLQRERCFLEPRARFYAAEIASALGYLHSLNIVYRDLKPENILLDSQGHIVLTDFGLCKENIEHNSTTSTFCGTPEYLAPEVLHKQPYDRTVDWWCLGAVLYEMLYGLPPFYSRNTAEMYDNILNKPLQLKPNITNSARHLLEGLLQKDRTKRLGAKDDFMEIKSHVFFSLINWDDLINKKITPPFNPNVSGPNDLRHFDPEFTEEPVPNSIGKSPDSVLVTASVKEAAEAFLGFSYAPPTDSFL

GST-SGK2α (wild type) = target: T3, GST-SGK2α (wild type)
T3 chain: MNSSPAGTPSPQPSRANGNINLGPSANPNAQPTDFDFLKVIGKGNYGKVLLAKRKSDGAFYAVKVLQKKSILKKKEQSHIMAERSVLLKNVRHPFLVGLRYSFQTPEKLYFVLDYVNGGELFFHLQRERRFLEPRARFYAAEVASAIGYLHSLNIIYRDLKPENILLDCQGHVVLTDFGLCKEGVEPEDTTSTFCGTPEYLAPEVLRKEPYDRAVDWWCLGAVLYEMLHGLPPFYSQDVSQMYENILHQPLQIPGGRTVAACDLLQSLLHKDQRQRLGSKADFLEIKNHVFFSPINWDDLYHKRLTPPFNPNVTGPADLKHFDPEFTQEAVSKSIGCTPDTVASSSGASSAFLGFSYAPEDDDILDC

B1: GST-PDK1 (protein)
chain: MARTTSQLYDAVPIQSSVVLCSCPSPSMVRTQTESSTPPGIPGGSRQGPAMDGTAAEPRPGAGSLQHAQPPPQPRKKRPEDFKFGKILGEGSFSTVVLARELATSREYAIKILEKRHIIKENKVPYVTRERDVMSRLDHPFFVKLYFTFQDDEKLYFGLSYAKNGELLKYIRKIGSFDETCTRFYTAEIVSALEYLHGKGIIHRDLKPENILLNEDMHIQITDFGTAKVLSPESKQARANSFVGTAQYVSPELLTEKSACKSSDLWALGCIIYQLVAGLPPFRAGNEYLIFQKIIKLEYDFPEKFFPKARDLVEKLLVLDATKRLGCEEMEGYGPLKAHPFFESVTWENLHQQTPPKLTAYLPAMSEDDEDCYGNYDNLLSQFGCMQVSSSSSSHSLSASDTGLPQRSGSNIEQYIHDLDSNSFELDLQFSEDEKRLLLEKQAGGNPWHQFVENNLILKMGPVDKRKGLFARRRQLLLTEGPHLYYVDPVNKVLKGEIPWSQELRPEAKNFKTFFVHTPNRTYYLMDPSGNAHKWCRKIQEVWRQRYQSHPDAAVQ
GST-SGK2α[S356D]
  activation and phosphorylation by PDK1, against wild type SGK2α: SGK2[Ser356Asp] was activated (FIG. 17B) and phosphorylated (FIG. 17E) by PDK1 much more effectively than wild type SGK2α
  phosphate incorporated, 30 min with 1.5 µg/ml PDK1 and MgATP: incorporation of 1.2 and 1.3 mol phosphate per mol protein, respectively
GST-SGK3 (wild type)
  phosphate incorporated, 30 min with 1.5 µg/ml PDK1 and MgATP: incorporation of 1.2 and 1.3 mol phosphate per mol protein, respectively
  stoichiometry of phosphorylation at 1.5 µg/ml PDK1, 30 min: close to 1 mol/mol for SGK1 and SGK3
[1]
  reduction of phosphorylation by PDK1: phosphorylation by PDK1 was reduced by 80-90%
[2]
  phosphorylation by PDK1: This mutant was phosphorylated at the same rate, and to the same extent, as wild type SGK
GST-SGK[S422D], O00141
  rate of phosphorylation and activation by PDK1, against wild type: stimulated the rate of phosphorylation (FIG. 5C) and activation (FIG. 5D) by PDK1 at least six-fold
GST-SGK[S422A], O00141
  extent of phosphorylation by PDK1: The mutation of Ser422 to Ala did not affect the extent of phosphorylation of SGK by PDK1
  reduction of the extent of activation by PDK1: reduced the extent of activation by 60%
GST-PKBα, P31749
Sequence of GST-PKBα, P31749 (P31749 whole entry, looked up): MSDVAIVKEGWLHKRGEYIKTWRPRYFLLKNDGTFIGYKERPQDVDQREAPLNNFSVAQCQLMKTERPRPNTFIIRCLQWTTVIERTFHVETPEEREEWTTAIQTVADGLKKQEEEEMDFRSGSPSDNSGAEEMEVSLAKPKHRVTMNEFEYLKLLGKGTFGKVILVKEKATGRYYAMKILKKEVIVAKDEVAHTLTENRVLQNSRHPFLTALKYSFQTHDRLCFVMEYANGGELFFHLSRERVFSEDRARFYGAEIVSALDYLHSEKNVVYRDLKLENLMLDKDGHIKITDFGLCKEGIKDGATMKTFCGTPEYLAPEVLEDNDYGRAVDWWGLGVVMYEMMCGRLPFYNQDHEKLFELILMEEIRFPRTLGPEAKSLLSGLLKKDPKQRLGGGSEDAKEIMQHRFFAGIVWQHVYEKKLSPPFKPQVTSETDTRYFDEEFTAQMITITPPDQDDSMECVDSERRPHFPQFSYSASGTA
  maximal stoichiometry of phosphorylation by PDK1: compared to 0.5 mol/mol for PKBα
[3]
  reduction of phosphorylation by PDK1: reduced phosphorylation by 80-90%
[4]
  stoichiometry of phosphorylation by PDK1: phosphorylated by PDK1 to a stoichiometry of 0.6 mol/mol protein
GST-SGK[T256A], O00141
  reduction of phosphorylation by PDK1: reduced phosphorylation by 80-90%
[5]
  increase of SGK activity (Crosstide assay) after phosphorylation by PDK1: phosphor-ylation was accompanied by a 10-fold increase in the basal activity
  maximal stoichiometry of phosphorylation by PDK1: the maximal stoichiometry of phosphorylation that could be attained was 0.05 mol/mol
  stoichiometry of phosphorylation at 1.5 µg/ml PDK1, 30 min: close to 1 mol/mol for SGK1 and SGK3
GST-SGK2α (wild type)
  stoichiometry of phosphorylation at 1.5 µg/ml PDK1, 30 min: 0.2 mol/mol for SGK2
